As a reminder, the IC50 is the concentration that gives 50% inhibition. The low end stands for greater potency, the high end for weaker potency.

Test [1] concerns the target T1, human GIPR (human), P48546.
T1 chain: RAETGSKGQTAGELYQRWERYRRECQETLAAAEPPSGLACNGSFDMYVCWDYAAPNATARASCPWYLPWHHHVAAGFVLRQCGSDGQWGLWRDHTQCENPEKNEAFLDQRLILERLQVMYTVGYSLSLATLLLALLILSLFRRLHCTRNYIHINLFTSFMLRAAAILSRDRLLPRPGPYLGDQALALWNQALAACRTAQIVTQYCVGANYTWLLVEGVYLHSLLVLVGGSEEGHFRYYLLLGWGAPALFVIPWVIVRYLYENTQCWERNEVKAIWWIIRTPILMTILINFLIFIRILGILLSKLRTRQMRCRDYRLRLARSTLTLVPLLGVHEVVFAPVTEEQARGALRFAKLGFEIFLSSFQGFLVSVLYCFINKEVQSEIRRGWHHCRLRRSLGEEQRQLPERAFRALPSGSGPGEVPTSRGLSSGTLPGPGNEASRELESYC

Test [2] concerns the target T2, human GLP-1R (human), P43220.
T2 chain: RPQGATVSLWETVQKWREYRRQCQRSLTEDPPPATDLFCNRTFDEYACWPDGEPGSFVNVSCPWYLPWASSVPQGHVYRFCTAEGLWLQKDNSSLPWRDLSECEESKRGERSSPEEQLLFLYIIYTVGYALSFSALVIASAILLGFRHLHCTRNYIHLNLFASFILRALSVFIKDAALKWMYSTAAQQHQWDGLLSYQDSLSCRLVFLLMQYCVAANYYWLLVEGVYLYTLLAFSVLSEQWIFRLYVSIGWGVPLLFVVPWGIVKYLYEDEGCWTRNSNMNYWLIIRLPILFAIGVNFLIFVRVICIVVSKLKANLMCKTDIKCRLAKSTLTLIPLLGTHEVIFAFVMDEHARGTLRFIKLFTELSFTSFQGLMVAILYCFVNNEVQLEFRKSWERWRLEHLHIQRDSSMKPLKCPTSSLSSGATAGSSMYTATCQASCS

Test [3] deals with T1, human GIPR (human), P48546. The experiment in a line: [125I]GIP displacement, hGIPR VLP.

Non-standard residues stand in square brackets, D forms with d. Groups on a side chain read outwards from the residue. Primed or numbered codes have the meaning given here. No end group written: not given here. *: point of attachment. C20 diacid = O=C(O)CCCCCCCCCCCCCCCCCCC(=O)*; NMeY = CN[C@@H](Cc1ccc(O)cc1)C(=O)O; Stearoyl = CCCCCCCCCCCCCCCCCC(=O)*; Tridecanoyl = CCCCCCCCCCCCC(=O)*; αMeF = C[C@](N)(Cc1ccccc1)C(=O)O; Lauroyl = CCCCCCCCCCCC(=O)*; dIva = CC[C@@](C)(N)C(=O)O; Iva = CC[C@](C)(N)C(=O)O; PEG2′ = not defined here; Dda = not defined here; Hexanoyl = CCCCCC(=O)*; Aib = CC(C)(N)C(=O)O

On to Y[Aib]EGTFISDYSK([PEG(2)-Lauroyl])ALDRIAQQDFVN[αMeF]LLAQRPSSGAPPPSR (ends and bridges not checked) [Compound 194], for which the Agonist activity (EC50, M) in test [1] was 3.5e-12 M; in test [2], 2.5e-08 M. In test [3], this molecule returned an IC50 of 2.3 nM.

Turning to Y[Aib]EGTVVSLYSK(Pal)[Aib]LDKQAQ[Aib]EFVKWLLAQK (ends and bridges not checked) [Compound 159], the Agonist activity (EC50, M) in test [1] was 7.8e-10 M; in test [2], greater than 1e-06 M. In addition, the IC50 in test [3] was 8.1 nM.

In the case of Y[Aib]EGTVVSLYSK([PEG(2)-Pal])[Aib]LDKQAQ[Aib]EFVKWLLAQK (ends and bridges not checked) [Compound 158], the Agonist activity (EC50, M) was 9.9e-11 M in test [1] and greater than 1e-06 M in test [2]. In test [3], this molecule came in with an IC50 of 3.4 nM.

As to Y[Aib]EGTVVSLYSK([Gly-Gly-Gly-Gly-C20 diacid])[Aib]LDRQAQ[Aib]EFVK(Ac)WLLAQR (ends and bridges not checked) [Compound 260], the results for the Agonist activity (EC50, M) in test [1] and in test [2] were 2.6e-10 M and greater than 1e-06 M, respectively. Moreover, the IC50 in test [3] was determined as 15 nM.

For the molecule Y[Aib]EGTFISDYSK([PEG(2)-Lauroyl])ALDRIAQQSFVNWLLAQRPSSGAPPPSR (ends and bridges not checked) [Compound 196], the Agonist activity (EC50, M) was 6.3e-12 M in test [1] and 4.4e-08 M in test [2]. Besides, the IC50 in test [3] was determined as 2.4 nM.

With Me-Y[Aib]EGTFISDYSIALDRIAQQN[αMeF]VNWLLAQRPSSGAPPPSR (not fully specified (residue 1, C-terminus); ends and bridges not checked) [Compound 134], the Agonist activity (EC50, M) in test [1] is 2.3e-12 M; in test [2] it was greater than 1e-06 M. For the same molecule, the IC50 in test [3] was 1.2 nM.

For the molecule [NMeY][Aib]EGTFISDYSIALDR[Aib]AQQSFVNWLLAQRPSSGAPPPSR (not fully specified (N-terminus, C-terminus); ends and bridges not checked) [Compound 137], the Agonist activity (EC50, M) in test [1] is 1.7e-12 M; in test [2], greater than 1e-06 M. For the same molecule, the IC50 in test [3] is 0.98 nM.

As to Y[Aib]EGTFISDYSK([PEG(2)-Stearoyl])ALDRIHQQDFVNWLLAQRPSSGAPPPS (ends and bridges not checked) [Compound 176], the Agonist activity (EC50, M) in test [1] is 1.9e-11 M; in test [2] it was greater than 1e-06 M. Also, the IC50 in test [3] is 3.4 nM.

Regarding Y[Aib]EGTVVSLYSI[Aib]LDKQAQ[Aib]EFVKWLLAQKK([PEG(2)-Pal]) (ends and bridges not checked) [Compound 160], the Agonist activity (EC50, M) in test [1] was 9.5e-11 M; in test [2], greater than 1e-06 M. The half-maximal inhibitory concentration (IC50) in test [3] was found to be 4.1 nM.

With Y[Aib]EGTFISDYSK([PEG2′-Hexanoyl])ALDRIHQQDFVNWLLAQRPSSGAPPPSR (ends and bridges not checked) [Compound 179], the Agonist activity (EC50, M) was 3e-12 M in test [1] and greater than 1e-06 M in test [2]. This molecule also displayed an IC50 in test [3] of 2.1 nM.

In the case of Y[Aib]EGTFISDYSK([PEG2′-Stearoyl])ALDRIHQQDFVNWLLAQRPSSGAPPPSR (ends and bridges not checked) [Compound 181], the Agonist activity (EC50, M) in test [1] was 9.2e-12 M; in test [2] it was greater than 1e-06 M. The same molecule yielded a half-inhibitory concentration (IC50) in test [3] of 2.6 nM.

For the molecule Y[Aib]EGTFISDYSK([PEG(2)-Pal])ALDRIHQQDFVNWLLAQRPSSGAPPPSR (ends and bridges not checked) [Compound 177], the figures for the Agonist activity (EC50, M) in test [1] and in test [2] were 7.2e-12 M and greater than 1e-06 M, respectively. Further, in test [3], the 50% inhibitory concentration (IC50) stood at 2.4 nM.

With Y[Aib]EGTFISDYSK([PEG2′-Dda])ALDRIAQQDFVNWLLAQRPSSGAPPPSR (ends and bridges not checked) [Compound 188], the results for the Agonist activity (EC50, M) in test [1] and in test [2] were 3e-12 M and 2e-07 M, respectively. The molecule also showed a 50% inhibitory concentration (IC50) in test [3] of 2.7 nM.

With Y[Aib]EGTVVSLYSI[Aib]LDKQAQ[Aib]EFVKWLLKGK(Pal) (ends and bridges not checked) [Compound 163], the Agonist activity (EC50, M) in test [1] was 6.6e-09 M; in test [2], greater than 1e-06 M. In addition, the IC50 in test [3] came out at 50 nM.

On to Y[Aib]EGTFISDYSK([PEG2′-Tridecanoyl])ALDRIAQQDFVNWLLAQRPSSGAPPPSR (ends and bridges not checked) [Compound 185], for which the Agonist activity (EC50, M) came out at 7e-12 M in test [1] and 2.6e-08 M in test [2]. The molecule further came in with an IC50 in test [3] of 19 nM.

In the case of Y[Aib]EGTFISDYSK([PEG(2)-Ac])ALDRIHQQDFVNWLLAQRPSSGAPPPSR (ends and bridges not checked) [Compound 178], the Agonist activity (EC50, M) in test [1] was 4.2e-12 M; in test [2], greater than 1e-06 M. In addition, the IC50 in test [3] stood at 3 nM.

Consider Y[Aib]EGTFISDYSK([PEG(2)-Ac])ALDRIHQQDFVNWLLAQRPSSGAPPPS (ends and bridges not checked) [Compound 173], for which the Agonist activity (EC50, M) in test [1] was 4.4e-12 M; in test [2], greater than 1e-06 M. The IC50 in test [3] was 7.1 nM.

On to Ac-Y[Aib]EGTFISDYSI[dIva]LDRIAQ[Aib]NFVNW[Iva]LAQRPSSGAPPPSR (ends and bridges not checked) [Compound 152], for which the Agonist activity (EC50, M) in test [1] is 2.8e-12 M; in test [2], greater than 1e-06 M. The same molecule yielded an IC50 in test [3] of 2.1 nM.

Turning to Y[Aib]EGTFISDYSK([PEG(2)-Lauroyl])ALDRIAQQD[αMeF]VNWLLAQRPSSGAPPPSR (ends and bridges not checked) [Compound 195], the Agonist activity (EC50, M) came to 4.8e-12 M in test [1] and 1e-07 M in test [2]. In test [3], this molecule came in with a 50% inhibitory concentration (IC50) of 2.3 nM.

In the case of [NMeY][Aib]EGTFISDYSIALDRIAQ[Aib]SFVNW[Iva]LAQRPSSGAPPPSR (ends and bridges not checked) [Compound 124], the Agonist activity (EC50, M) in test [1] is 1.7e-12 M; in test [2], greater than 1e-06 M. The same molecule came in with a half-maximal inhibitory concentration (IC50) in test [3] of 1.6 nM.

For [NMeY][Aib]EGTFISDYSI[dIva]LDR[Aib]AQ[Aib]N[αMeF]VNWLLAQRPSSGAPPPSR (not fully specified (N-terminus, C-terminus); ends and bridges not checked) [Compound 106], the Agonist activity (EC50, M) in test [1] is 1.7e-12 M; in test [2], greater than 1e-06 M. The same molecule gave an IC50 in test [3] of 1.6 nM.

With Y[Aib]EGTFISDYSK([PEG2′-Lauroyl])ALDRIHQQDFVNWLLAQRPSSGAPPPSR (ends and bridges not checked) [Compound 180], the Agonist activity (EC50, M) in test [1] is 1.9e-12 M; in test [2], greater than 1e-06 M. Also, in test [3], the IC50 was found to be 1.2 nM.

Take Me-Y[Aib]EGTFISDYSIALDRIAQ[Aib]SFVNWLLAQRPSSGAPPPSR (not fully specified (residue 1, C-terminus); ends and bridges not checked) [Compound 136]: the Agonist activity (EC50, M) in test [1] turned out to be 2.2e-12 M; in test [2] it was 2.1e-07 M. In test [3], the IC50 worked out at 2.1 nM.

Turning to Y[Aib]EGTFISDYSK([PEG(2)-Lauroyl])ALDRIAQQDFVNWLLAQRPSSGAPPPS (ends and bridges not checked) [Compound 191], the Agonist activity (EC50, M) in test [1] was found to be 4.1e-12 M; in test [2] it was 5e-08 M. In test [3], this molecule came in with an IC50 of 2.7 nM.
